B1: Guanyl-specific ribonuclease T1, P00651 (parent)
chain: MMYSKLLTLTTLLLPTALALPSLVERACDYTCGSNCYSSSDVSTAQAAGYQLHEDGETVGSNSYPHKYNNYEGFDFSVSSPYYEWPILSSGDVYSGGSPGADRVVFNENNQLAGVITHTGASGNNFVECT

Variants of: B1
Conditions: Aspergillus oryzae (strain ATCC 42149 / RIB 40); pH 7; 5 °C; Urea; DSC; MOPS 30 mM; reversible: yes; structure 1RN1; whole UniProt chain shown

| Variant | ddG of mutation (higher = less stable) [kcal/mol] | denaturant m value [kcal/mol/M] | denaturant midpoint (higher = more stable) [M] | unfolding free energy [kcal/mol] |
| --- | --- | --- | --- | --- |
| D102N | 2.77 | 1.53 | 3.63 | 5.55 |

Same assay, conditions: Aspergillus oryzae (strain ATCC 42149 / RIB 40); pH 7; 10 °C; Urea; DSC; MOPS 30 mM; reversible: yes; structure 1RN1; whole UniProt chain shown

| Variant | ddG of mutation (higher = less stable) [kcal/mol] | denaturant m value [kcal/mol/M] | denaturant midpoint (higher = more stable) [M] | unfolding free energy [kcal/mol] |
| --- | --- | --- | --- | --- |
| D102N | 2.87 | 1.52 | 3.3 | 5 |

Same assay, conditions: Aspergillus oryzae (strain ATCC 42149 / RIB 40); pH 7; 15 °C; Urea; DSC; MOPS 30 mM; reversible: yes; structure 1RN1; whole UniProt chain shown

| Variant | ddG of mutation (higher = less stable) [kcal/mol] | denaturant m value [kcal/mol/M] | denaturant midpoint (higher = more stable) [M] | unfolding free energy [kcal/mol] |
| --- | --- | --- | --- | --- |
| D102N | 3.09 | 1.41 | 3.01 | 4.25 |
| D102A | 3.7 | 1.42 | 2.57 |  |

Same assay, conditions: Aspergillus oryzae (strain ATCC 42149 / RIB 40); pH 7; 20 °C; Urea; DSC; MOPS 30 mM; reversible: yes; structure 1RN1; whole UniProt chain shown

| Variant | ddG of mutation (higher = less stable) [kcal/mol] | denaturant m value [kcal/mol/M] | denaturant midpoint (higher = more stable) [M] | unfolding free energy [kcal/mol] |
| --- | --- | --- | --- | --- |
| D102N | 3.19 | 1.48 | 2.39 | 3.53 |

Same assay, conditions: Aspergillus oryzae (strain ATCC 42149 / RIB 40); pH 7; 25 °C; Urea; DSC; MOPS 30 mM; reversible: yes; structure 1RN1; whole UniProt chain shown

| Variant | ddG of mutation (higher = less stable) [kcal/mol] | denaturant m value [kcal/mol/M] | denaturant midpoint (higher = more stable) [M] | unfolding free energy [kcal/mol] |
| --- | --- | --- | --- | --- |
| D102N | 3.51 | 1.44 | 1.8 | 2.58 |

Same assay, conditions: Aspergillus oryzae (strain ATCC 42149 / RIB 40); pH 7; Thermal; DSC; MOPS 30 mM; reversible: yes; structure 1RN1; whole UniProt chain shown

| Variant | Tm [°C] | change of melting temperature, mutant - wild type (higher = more stable) [°C] | unfolding enthalpy (calorimetric) [kcal/mol] |
| --- | --- | --- | --- |
| D102N | 37 | -13.8 | 76 |
| D102A | 35.6 | -15.2 | 71.1 |
| D102S | 37.2 | -13.6 | 77.6 |

Same assay, conditions: Aspergillus oryzae (strain ATCC 42149 / RIB 40); pH 7; 15 °C; Thermal; DSC; MOPS 30 mM; reversible: yes; structure 1RN1; whole UniProt chain shown

| Variant | ddG of mutation (higher = less stable) [kcal/mol] | heat capacity change of unfolding [kcal/mol/K] |
| --- | --- | --- |
| D102A | 3.8 | 1.39 |
| D102S | 3.1 | 1.39 |

— FireProtDB (doi:10.1021/bi991422s)
